The text below walks through data of publication PMC10786891, “Massively parallel profiling of RNA-targeting CRISPR-Cas13d”.

To fix the notation:
B1: target 3 insG 3' of 8,insA 3' of 6 (mixed)
RNA 1: CACCCGUGCAAAAUUGCAGGGGUCUAAAACGACCUGAAUAUUUCAGAUCAAA
RNA 2: GGGAAUGGAUCCACAUCUACGAAUUCGUUUUUGAUCUGAAAUAUGUCAAGGUCUGCAGAUCGGAAGAGCACACGU
B2: target 3 U7A,U8C (mixed)
RNA 1: B1 RNA 1
RNA 2: GGGAAUGGAUCCACAUCUACGAAUUCGUUUUUGAUCUGAAAUACACAGGUCUGCAGAUCGGAAGAGCACACGU
B3: target 3 insC 3' of 2,insG 3' of 1 (mixed)
RNA 1: B1 RNA 1
RNA 2: B1 RNA 2 with G45U, U46C, C47A, A48G, A49G, G50U, G51C, U52C, C53G
B4: target 3 insU 3' of 22,insA 3' of 7 (mixed)
RNA 1: B1 RNA 1
RNA 2: GGGAAUGGAUCCACAUCUACGAAUUCGUUUUUUGAUCUGAAAUAUUACAGGUCUGCAGAUCGGAAGAGCACACGU
B5: target 3 insA 3' of 8,insU 3' of 6 (mixed)
RNA 1: B1 RNA 1
RNA 2: B1 RNA 2 with G45A, A48U
B6: target 3 insC 3' of 4 (mixed)
RNA 1: B1 RNA 1
RNA 2: GGGAAUGGAUCCACAUCUACGAAUUCGUUUUUGAUCUGAAAUAUUCAGCGUCUGCAGAUCGGAAGAGCACACGU
B7: target 3 U2G,C16U (mixed)
RNA 1: B1 RNA 1
RNA 2: B2 RNA 2 with C36U, C44U, A45U, U50G
B8: target 3 U2G,G3U (mixed)
RNA 1: B1 RNA 1
RNA 2: B2 RNA 2 with C44U, A45U, G49U, U50G
B9: target 3 G3U,C6G (mixed)
RNA 1: B1 RNA 1
RNA 2: B2 RNA 2 with C44U, A45U, C46G, G49U
B10: target 3 insU 3' of 22,insC 3' of 5 (mixed)
RNA 1: B1 RNA 1
RNA 2: B4 RNA 2 with A47C, C48A, A49C
B11: target 3 insA 3' of 10,insC 3' of 5 (mixed)
RNA 1: B1 RNA 1
RNA 2: B1 RNA 2 with U44A, G45U, A49C
B12: target 3 insA 3' of 8,insG 3' of 2 (mixed)
RNA 1: B1 RNA 1
RNA 2: B1 RNA 2 with G45A, A49G, G51U, U52G
B13: target 3 A5G,U7A (mixed)
RNA 1: B1 RNA 1
RNA 2: B2 RNA 2 with C44U, A47G
B14: target 3 G3C,U8G (mixed)
RNA 1: B1 RNA 1
RNA 2: B2 RNA 2 with C44G, A45U, G49C
B15: target 3 insC 3' of 12,insA 3' of 2 (mixed)
RNA 1: B1 RNA 1
RNA 2: B1 RNA 2 with A41C, U42A, A43U, U44A, G45U, A49G, G51U, U52A
B16: target 3 insC 3' of 11,insC 3' of 5 (mixed)
RNA 1: B1 RNA 1
RNA 2: B1 RNA 2 with U42C, A43U, U44A, G45U, A49C
B17: target 3 insG 3' of 7,insA 3' of 4 (mixed)
RNA 1: B1 RNA 1
RNA 2: B1 RNA 2 with G45U, U46G, A49G, G50A
B18: target 3 insA 3' of 10,insU 3' of 4 (mixed)
RNA 1: B1 RNA 1
RNA 2: B1 RNA 2 with U44A, G45U, A49G, G50U
B19: target 3 G3A,U7A (mixed)
RNA 1: B1 RNA 1
RNA 2: B2 RNA 2 with C44U, G49A
B20: target 3 insA 3' of 22,insA 3' of 22 (mixed)
RNA 1: B1 RNA 1
RNA 2: GGGAAUGGAUCCACAUCUACGAAUUCGUUUAAUUGAUCUGAAAUAUUCAGGUCUGCAGAUCGGAAGAGCACACGU
B21: target 3 U2G,U22G (mixed)
RNA 1: B1 RNA 1
RNA 2: B2 RNA 2 with U30G, C44U, A45U, U50G
B22: target 3 insC 3' of 3,insC 3' of 3 (mixed)
RNA 1: B1 RNA 1
RNA 2: B1 RNA 2 with G45U, U46C, C47A, A48G, A49G, G50C, G51C
B23: target 3 G4A,A12U (mixed)
RNA 1: B1 RNA 1
RNA 2: B2 RNA 2 with A40U, C44U, A45U, G48A
B24: target 3 U2G,A9G (mixed)
RNA 1: B1 RNA 1
RNA 2: B2 RNA 2 with A43G, C44U, A45U, U50G
B25: target 1 complement block 4-13 (mixed)
RNA 1: CACCCGUGCAAAAAUGCAGGGGUCUAAAACUGAGCGGAUAACCUCUCUAUGG
RNA 2: GGGAAUGGAUCCACAUCUACGAAUUCGUACCAUAGAGACCAAUAGGCGUCACCGAGAUCGGAAGAGCACACGU
B26: target 1 insU 3' of 12,insG 3' of 3 (mixed)
RNA 1: B25 RNA 1
RNA 2: GGGAAUGGAUCCACAUCUACGAAUUCGUACCAUAGAGAGGUUUAUCCGCUGCACCGAGAUCGGAAGAGCACACGU
B27: target 1 insA 3' of 21,insC 3' of 18 (mixed)
RNA 1: B25 RNA 1
RNA 2: GGGAAUGGAUCCACAUCUACGAAUUCGUACCAAUACGAGAGGUUAUCCGCUCACCGAGAUCGGAAGAGCACACGU

Residue numbers refer to the chain shown, from its start. Names may count otherwise.

For this data set, the target named is T1, EsCas13d, nuclease-dead (Eubacterium siraeum, UniProt B0MS50, R295A;H300A;R849A;H854A).
T1 sequence: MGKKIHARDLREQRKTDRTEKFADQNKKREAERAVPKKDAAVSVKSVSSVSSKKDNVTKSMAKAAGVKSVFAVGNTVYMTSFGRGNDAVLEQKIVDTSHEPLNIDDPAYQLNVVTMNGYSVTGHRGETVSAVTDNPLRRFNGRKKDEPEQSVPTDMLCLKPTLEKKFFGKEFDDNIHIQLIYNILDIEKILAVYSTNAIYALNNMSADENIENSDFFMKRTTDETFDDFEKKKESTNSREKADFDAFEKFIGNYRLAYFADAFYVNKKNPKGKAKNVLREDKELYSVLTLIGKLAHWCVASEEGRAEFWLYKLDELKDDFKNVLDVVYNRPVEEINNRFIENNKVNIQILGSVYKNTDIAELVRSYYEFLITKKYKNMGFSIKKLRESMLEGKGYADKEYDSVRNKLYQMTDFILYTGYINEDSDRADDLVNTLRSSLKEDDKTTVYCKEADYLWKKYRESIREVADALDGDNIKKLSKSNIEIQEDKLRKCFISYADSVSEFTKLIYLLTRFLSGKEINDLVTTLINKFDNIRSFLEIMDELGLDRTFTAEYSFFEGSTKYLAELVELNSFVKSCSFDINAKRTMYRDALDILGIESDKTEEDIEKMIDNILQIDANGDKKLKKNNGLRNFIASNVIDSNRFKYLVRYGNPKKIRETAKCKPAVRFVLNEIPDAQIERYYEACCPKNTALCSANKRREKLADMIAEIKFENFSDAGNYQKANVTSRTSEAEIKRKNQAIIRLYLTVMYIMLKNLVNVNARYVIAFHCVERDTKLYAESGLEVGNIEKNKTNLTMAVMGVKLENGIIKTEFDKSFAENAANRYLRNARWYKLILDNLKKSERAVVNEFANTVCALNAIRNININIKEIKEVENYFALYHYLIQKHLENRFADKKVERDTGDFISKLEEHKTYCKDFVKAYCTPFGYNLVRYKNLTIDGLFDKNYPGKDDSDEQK
Nature of the data set: crRNA (strand 1, pre-loaded); Mg2+; 40 mM Tris-HCl pH 7.5, 150 mM NaCl, 6 mM MgCl2, 1 mM DTT, 0.1% Tween-20, 0.2 mg/ml BSA; 25 C; 10 min per concentration, then washed. Particulars: tags: His6-TwinStrep-SUMO cleaved; N-terminal SNAP kept (SNAP-Surface 488); label: 3' end held by stalled T7 RNA polymerase.
As a reminder, the Kd is the equilibrium constant for the complex coming apart. For B1, the affinity, expressed as Kd, was 43.5 ± 6 nM.

As to B2, the Kd was 59.5 ± 7 nM.

As to B3, the Kd is 52 ± 12.5 nM.

B4 had a Kd of 68.5 ± 19 nM.

Take B5: binding was put at a Kd of 34.2 ± 3.35 nM.

Take B6: the Kd was determined as 19 ± 2.45 nM.

As to B7, the Kd is 21.6 ± 2.7 nM.

As to B8, the Kd was 9.2 ± 0.8 nM.

On to B9, for which binding was put at a Kd of 56.5 ± 11.5 nM. This Kd is about 6.1-fold higher than that of the molecule before.

The molecule B10 showed a Kd of 24.1 ± 2.9 nM.

The molecule B11 returned a Kd of 74.5 ± 11.5 nM. This Kd is about 3.1-fold higher than that of the molecule before.

B12 displayed a Kd of 36.5 ± 8.5 nM.

Consider B13, for which binding was characterised by a dissociation constant (Kd) of 37 ± 5.5 nM.

For the molecule B14, binding was put at a Kd of 88 ± 16.5 nM. This Kd lies about 2.4-fold higher than the previous one.

In the case of B15, the Kd is ~102 nM.

B16 gave a Kd of 88 ± 25 nM.

Take B17: the Kd was determined as 88 ± 17.5 nM.

The molecule B18 yielded a Kd of 59 ± 13 nM.

In turn, B19 yielded a Kd of 72.5 ± 14.5 nM.

B20 had a Kd of 19.4 ± 2.45 nM.

In the case of B21, the Kd was determined as 61.5 ± 14.5 nM.

With B22, the Kd is 39 ± 4 nM. Against the preceding molecule, the Kd is about 1.6-fold lower.

For the molecule B23, the Kd was determined as 72.5 ± 11 nM.

For the molecule B24, the affinity, expressed as Kd, was 36 ± 5 nM.

Consider B25, for which the affinity, expressed as Kd, was 55 ± 6 nM. This Kd lies about 1.5-fold higher than the previous one.

The molecule B26 returned a Kd of 6.3 ± 0.4 nM.

Take B27: the Kd amounted to 47 ± 7 nM.
